# Experimental data taken from IntAct's records for PubMed 23603394.
# B1: PH and SEC7 domain-containing protein 1 (Homo sapiens), A5PKW4 (parent)
# chain: MAQGAMRFCSEGDCAISPPRCPRRWLPEGPVPQSPPASMYGSTGSLLRRVAGPGPRGRELGRVTAPCTPLRGPPSPRVAPSPWAPSSPTGQPPPGAQSSVVIFRFVEKASVRPLNGLPAPGGLSRSWDLGGVSPPRPTPALGPGSNRKLRLEASTSDPLPARGGSALPGSRNLVHGPPAPPQVGADGLYSSLPNGLGGPPERLATLFGGPADTGFLNQGDTWSSPREVSSHAQRIARAKWEFFYGSLDPPSSGAKPPEQAPPSPPGVGSRQGSGVAVGRAAKYSETDLDTVPLRCYRETDIDEVLAEREEADSAIESQPSSEGPPGTAYPPAPRPGPLPGPHPSLGSGNEDEDDDEAGGEEDVDDEVFEASEGARPGSRMPLKSPVPFLPGTSPSADGPDSFSCVFEAILESHRAKGTSYTSLASLEALASPGPTQSPFFTFELPPQPPAPRPDPPAPAPLAPLEPDSGTSSAADGPWTQRGEEEEAEARAKLAPGREPPSPCHSEDSLGLGAAPLGSEPPLSQLVSDSDSELDSTERLALGSTDTLSNGQKADLEAAQRLAKRLYRLDGFRKADVARHLGKNNDFSKLVAGEYLKFFVFTGMTLDQALRVFLKELALMGETQERERVLAHFSQRYFQCNPEALSSEDGAHTLTCALMLLNTDLHGHNIGKRMTCGDFIGNLEGLNDGGDFPRELLKALYSSIKNEKLQWAIDEEELRRSLSELADPNPKVIKRISGGSGSGSSPFLDLTPEPGAAVYKHGALVRKVHADPDCRKTPRGKRGWKSFHGILKGMILYLQKEEYKPGKALSETELKNAISIHHALATRASDYSKRPHVFYLRTADWRVFLFQAPSLEQMQSWITRINVVAAMFSAPPFPAAVSSQKKFSRPLLPSAATRLSQEEQVRTHEAKLKAMASELREHRAAQLGKKGRGKEAEEQRQKEAYLEFEKSRYSTYAALLRVKLKAGSEELDAVEAALAQAGSTEDGLPPSHSSPSLQPKPSSQPRAQRHSSEPRPGAGSGRRKP
# Variants of: B1
# Conditions: with arf6_human ARF6, P62330
# Sequence of arf6_human ARF6, P62330 (P62330 whole entry): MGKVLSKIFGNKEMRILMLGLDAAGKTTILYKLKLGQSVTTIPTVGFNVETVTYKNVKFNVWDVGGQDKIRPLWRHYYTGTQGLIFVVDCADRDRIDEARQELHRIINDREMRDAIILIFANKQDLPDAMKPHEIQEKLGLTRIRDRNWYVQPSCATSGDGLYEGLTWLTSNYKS
row,effect of a mutation on the interaction,Variant
1,disrupting interaction,E621K

# Variants of: B1
# Conditions: with arf6_human ARF6, P62330
# Remark: another data set of the same source
row,effect of a mutation on the interaction,Variant
1,decreasing interaction,E621K

# Variants of: B1
# Conditions: with arf6_human ARF6, P62330
# Remark: another data set of the same source
row,effect of a mutation on the interaction,Variant
1,decreasing interaction,R765E
2,decreasing interaction,K766E
